The target of one experiment is HLA-C*06:02. Description: IEDB peptide-MHC binding, purified MHC/competitive/fluorescence; filed as Kd, often an IC50 or EC50 that approximates it; ≥ and ≤ were set here for values at or beyond the usual limits of such assays. The note with it: source organism: Entamoeba histolytica HM-1:IMSS.
The next experiment deals with HLA-A*03:19. The description is as above. As to conditions: source organism: Entamoeba histolytica HM-1:IMSS.
The target of the next experiment is HLA-B*83:01. The experiment is described as above. As to conditions: source organism: Entamoeba histolytica HM-1:IMSS.
The next experiment concerns the target HLA-A*02:50. The description is as above. As to conditions: source organism: Entamoeba histolytica HM-1:IMSS.
The next experiment addresses HLA-B*45:06. Described as above. As to conditions: source organism: Entamoeba histolytica HM-1:IMSS.
The target of another experiment is HLA-B*15:42. The description is as above. As to conditions: source organism: Entamoeba histolytica HM-1:IMSS.
The target in another experiment is HLA-B*27:05. Description: IEDB peptide-MHC binding, purified MHC/direct/fluorescence; filed as Kd, often an IC50 or EC50 that approximates it; ≥ and ≤ were set here for values at or beyond the usual limits of such assays. The note with it: source organism: Entamoeba histolytica.
The target of a further experiment is HLA-A*01:01. Described as above. As to conditions: source organism: Entamoeba histolytica.
A further experiment concerns the target HLA-B*44:02. The experiment is described as above. As to conditions: source organism: Entamoeba histolytica.
Experiment [1] concerns the target HLA-A*02:12. The description is as above. The note with it: source organism: Entamoeba histolytica HM-1:IMSS.
Experiment [2] has as its target HLA-A*02:11. The experiment is described as above. The note with it: source organism: Entamoeba histolytica HM-1:IMSS.
Experiment [3] deals with HLA-A*03:01. The experiment is described as above. The note with it: source organism: Entamoeba histolytica.
For experiment [4], the target named is HLA-A*02:03. The experiment is described as above. The note with it: source organism: Entamoeba histolytica HM-1:IMSS.
Experiment [5] concerns the target HLA-A*02:01. The description is as above. The note with it: source organism: Entamoeba histolytica.
The target of another experiment is HLA-C*08:02. Described as above. As to conditions: source organism: Entamoeba histolytica HM-1:IMSS.
Experiment [6] addresses HLA-A*02:19. Described as above. As to conditions: source organism: Entamoeba histolytica HM-1:IMSS.
A further experiment deals with HLA-B*40:01. Described as above. As to conditions: source organism: Entamoeba histolytica.
In the next experiment the target is HLA-B*58:01. The experiment is described as above. As to conditions: source organism: Entamoeba histolytica.
The target in experiment [7] is HLA-A*69:01. The description is as above. As to conditions: source organism: Entamoeba histolytica.
The target of the next experiment is HLA-A*24:02. The experiment is described as above. The note with it: source organism: Entamoeba histolytica.
Experiment [8] deals with HLA-B*15:01. The experiment is described as above. The note with it: source organism: Entamoeba histolytica.
The target in a further experiment is HLA-C*15:02. The description is as above. As to conditions: source organism: Entamoeba histolytica HM-1:IMSS.
The next experiment has as its target HLA-A*02:06. Described as above. The note with it: source organism: Entamoeba histolytica HM-1:IMSS.
The target in experiment [9] is HLA-B*18:01. The experiment is described as above. The note with it: source organism: Entamoeba histolytica.
The target in the next experiment is HLA-B*07:02. The description is as above. As to conditions: source organism: Entamoeba histolytica.
Experiment [10] addresses HLA-A*02:12. Description: IEDB peptide-MHC binding, purified MHC/competitive/fluorescence; filed as Kd, often an IC50 or EC50 that approximates it; ≥ and ≤ were set here for values at or beyond the usual limits of such assays. As to conditions: source organism: Vibrio antiquarius.
Experiment [11] concerns the target HLA-A*02:11. Described as above. The note with it: source organism: Vibrio antiquarius.
Experiment [12] addresses HLA-A*03:01. The experiment is described as above. The note with it: source organism: Vibrio antiquarius.
Experiment [13] deals with HLA-A*02:03. Described as above. As to conditions: source organism: Vibrio antiquarius.
The target of another experiment is HLA-B*15:17. The description is as above. The note with it: source organism: Vibrio antiquarius.
In experiment [14] the target is HLA-A*02:01. Described as above. As to conditions: source organism: Vibrio antiquarius.
In the next experiment the target is HLA-B*57:01. The experiment is described as above. As to conditions: source organism: Vibrio antiquarius.
The target of a further experiment is HLA-B*39:01. The description is as above. The note with it: source organism: Vibrio antiquarius.
Another experiment deals with HLA-A*25:01. Described as above. The note with it: source organism: Vibrio antiquarius.
The next experiment addresses HLA-A*26:01. Described as above. The note with it: source organism: Vibrio antiquarius.
The next experiment addresses HLA-A*80:01. Described as above. The note with it: source organism: Vibrio antiquarius.
The target of experiment [15] is HLA-A*02:19. The description is as above. As to conditions: source organism: Vibrio antiquarius.
Another experiment addresses HLA-B*51:01. The description is as above. The note with it: source organism: Vibrio antiquarius.
Experiment [16] has as its target HLA-A*69:01. The experiment is described as above. As to conditions: source organism: Vibrio antiquarius.
A further experiment addresses HLA-A*24:03. The experiment is described as above. The note with it: source organism: Vibrio antiquarius.
For a further experiment, the target named is HLA-A*68:02. The experiment is described as above. The note with it: source organism: Vibrio antiquarius.
The target in experiment [17] is HLA-B*15:01. The description is as above. The note with it: source organism: Vibrio antiquarius.
The target in another experiment is HLA-B*27:03. The experiment is described as above. As to conditions: source organism: Vibrio antiquarius.
The target of experiment [18] is HLA-B*18:01. The description is as above. As to conditions: source organism: Vibrio antiquarius.
The target of the next experiment is HLA-A*29:02. The experiment is described as above. The note with it: source organism: Vibrio antiquarius.
The target of another experiment is HLA-A*23:01. The experiment is described as above. The note with it: source organism: Vibrio antiquarius.
The target in another experiment is HLA-B*46:01. The description is as above. As to conditions: source organism: Vibrio antiquarius.

As a reminder, the Kd is the concentration at which binding is half-saturated.

A value given as a limit tells only on which side of the number the result lay.

Turning to KLMPGSIYV, the Kd with HLA-C*06:02 was 1.17 µM; with HLA-A*03:19, 0.109 µM; in the experiment with HLA-B*83:01, not below 5 µM; with HLA-A*02:50, not above 0.0001 µM; with HLA-B*45:06, not below 5 µM; with HLA-B*15:42, not below 5 µM. In addition, the Kd in the experiment with HLA-B*27:05 is not below 20 µM; with HLA-A*01:01 it was not below 20 µM; with HLA-B*44:02 it was not below 20 µM; with HLA-A*02:12 [1] it was 0.002 µM; in the experiment with HLA-A*02:11 [2], not above 0.001 µM; with HLA-A*03:01 [3] it was 0.138 µM. In addition, the Kd with HLA-A*02:03 [4] was not above 0.001 µM; with HLA-A*02:01 [5], 0.0062 µM; with HLA-C*08:02 it was not below 20 µM; in the experiment with HLA-A*02:19 [6] it was not above 0.001 µM; with HLA-B*40:01, not below 20 µM; with HLA-B*58:01, not below 20 µM. For the same sequence, the Kd was 0.368 µM with HLA-A*69:01 [7]; not below 20 µM with HLA-A*24:02; 0.127 µM with HLA-B*15:01 [8]; 0.071 µM with HLA-C*15:02; 0.002 µM in the experiment with HLA-A*02:06; not below 20 µM with HLA-B*18:01 [9]. For the same sequence, the dissociation constant (Kd) in the experiment with HLA-B*07:02 is not below 20 µM.
Take SLTIPSFYT: the equilibrium dissociation constant (Kd) was not below 20 µM with HLA-A*02:12 [10]; 0.0097 µM in the experiment with HLA-A*02:11 [11]; not below 20 µM with HLA-A*03:01 [12]; not below 20 µM with HLA-A*02:03 [13]; not below 20 µM with HLA-B*15:17; not below 20 µM with HLA-A*02:01 [14]. Besides, the dissociation constant Kd with HLA-B*57:01, with HLA-B*39:01, with HLA-A*25:01, in the experiment with HLA-A*26:01, in the experiment with HLA-A*80:01 and with HLA-A*02:19 [15] was not below 20 µM in each case. Further, the Kd in the experiment with HLA-B*51:01, with HLA-A*69:01 [16], with HLA-A*24:03, with HLA-A*68:02, with HLA-B*15:01 [17] and with HLA-B*27:03 was not below 20 µM throughout. Further, the Kd with HLA-B*18:01 [18], with HLA-A*29:02, with HLA-A*23:01 and in the experiment with HLA-B*46:01 was not below 20 µM each time.

Values taken from the Immune Epitope Database (IEDB).
